Reference: patent US6846910B2, “Isolated proteins containing portions of FAPα and other proteins” (Ludwig Institute for Cancer Research, priority 1994, dated 2005)
Blank lines part the entries; values can stand above or below the molecule they belong to.

Legend:
170 kD FAPα dimer = biological target: T1, 170 kD FAPα dimer (Homo sapiens, UniProt Q12884, A207P/T229K/T354R); experiment: Gelatin zymography with added treatments; type: biochemical
T1 construct: expressed in transfected cells; host or cells: 293 cells stably transfected with pFAP.38 (293-FAP)
T1 sequence (Q12884 1-760 A207P/T229K/T354R): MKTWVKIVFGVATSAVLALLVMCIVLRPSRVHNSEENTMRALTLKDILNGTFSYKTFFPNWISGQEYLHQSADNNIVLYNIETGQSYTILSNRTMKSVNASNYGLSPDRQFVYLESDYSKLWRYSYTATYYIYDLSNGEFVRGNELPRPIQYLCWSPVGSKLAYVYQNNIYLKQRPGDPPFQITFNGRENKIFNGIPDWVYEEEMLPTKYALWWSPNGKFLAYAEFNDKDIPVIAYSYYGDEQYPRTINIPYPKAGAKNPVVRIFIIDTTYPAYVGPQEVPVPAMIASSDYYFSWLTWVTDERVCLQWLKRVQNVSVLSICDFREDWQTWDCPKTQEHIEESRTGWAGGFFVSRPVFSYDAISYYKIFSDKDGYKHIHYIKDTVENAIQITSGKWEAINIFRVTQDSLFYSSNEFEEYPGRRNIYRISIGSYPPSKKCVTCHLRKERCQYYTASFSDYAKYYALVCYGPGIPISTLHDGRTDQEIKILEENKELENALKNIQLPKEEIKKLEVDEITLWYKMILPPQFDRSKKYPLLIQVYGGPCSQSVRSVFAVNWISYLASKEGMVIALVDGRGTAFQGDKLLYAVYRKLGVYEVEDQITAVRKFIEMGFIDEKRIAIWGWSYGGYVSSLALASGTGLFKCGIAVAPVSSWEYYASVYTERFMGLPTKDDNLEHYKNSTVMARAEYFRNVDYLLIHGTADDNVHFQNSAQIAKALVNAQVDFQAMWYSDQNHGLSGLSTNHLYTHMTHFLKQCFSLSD
Experimental: Extracts of 293-FAP cells were prepared, using an extraction buffer (0.15M NaCl, 0.05M Tris-HCl, pH 7.4, 10 mM MgCl2, 1 percent Triton X-114), were cleared by centrifugation (4,000×g, 10 minutes at 40° C.), and phase partitioned at 37° C. for 10-20 minutes. This was followed by further centrifugation (4000×g, 20 minutes at 20-25° C.) Detergent phases were diluted with buffer (0.15M NaCl, 0.05M Tris-HCl pH 7.4, 5 mM CaCl2, 5 mM MgCl2, 0.75% Empigen BB), and separated on concanavalin A-Sepharose following Rettig et al., supra. Any concanavalin A bound fractions were eluted with 0.25M methyl-α-D-mannopyranoside in elution buffer 0.15M NaCl,0.05M Tris-HCl, pH 7.4, 5 mM CaCl2, 5 mM MgCl2, 0.1% Triton X-100), mixed with zymography sample buffer (0.25M Tris-HCl, pH 6.8, 8% SDS, 40% glycerol, 0.01% bromophenol blue), at a 3:1 ratio, and used for further analysis.
Aliquots of sample were loaded onto polyacrylamide gels containing 0.1% of either of gelatin or casein. Electrophoresis was then carried out in a Biorad Mini-Protein II system,.at 20 mA constant current for 1.5-2 hours, until the bromophenol blue dye fronts of samples had reached the lower end of the gel. The gel was removed and incubated for one hour at 20-25° C. in a 2.5% aqueous solution of Triton X-100 on a rotary shaker. The Triton X-100 solution was decanted, and replaced with enzyme buffer (0.05M Tris-HCl, pH 7.5, 0.2M NaCl, 5 mM CaCl2, 5 mM MgCl2, 0.02% Brij 35). The gel was then incubated at 37° C. or 41° C., followed by staining or destaining at room temperature. Gels were stained with 0.5% of Coomassie Brilliant Blue G-250 in an aqueous solution of 30% methanol and 10% acetic acid for 15, 30, and 60 minutes, respectively. Subsequently, gels were incubated for 15 minutes in an aqueous solution of 30% CH3OH and 5% glycerol, followed by drying between sheets of cellophane.

[1] = biological target: fibroblast activation protein alpha (human) (UniProt Q12884); experiment: MHA rosetting assay on SW872 liposarcoma cells
[2] = biological target: fibroblast activation protein alpha (human) (UniProt Q12884); experiment: MHA rosetting assay on COS-1 cells transfected with pFAP.38
casein = experiment: Casein zymography of 293-FAP cell extracts; type: biochemical; conditions: gel with 0.1% casein
Experimental: (§1) Extracts of 293-FAP cells were prepared, using an extraction buffer (0.15M NaCl, 0.05M Tris-HCl, pH 7.4, 10 mM MgCl2, 1 percent Triton X-114), were cleared by centrifugation (4,000×g, 10 minutes at […]), and phase partitioned at 37° C. for 10-20 minutes. This was followed by further centrifugation (4000×g, 20 minutes at 20-25° C.) Detergent phases were diluted with buffer (0.15M NaCl, 0.05M Tris-HCl pH 7.4, 5 mM CaCl2, 5 mM MgCl2, 0.75% Empigen BB), and separated on concanavalin A-Sepharose following Rettig et al., supra. Any concanavalin A bound fractions were eluted with 0.25M methyl-α-D-mannopyranoside in elution buffer 0.15M NaCl,0.05M Tris-HCl, pH 7.4, 5 mM CaCl2, 5 mM MgCl2, 0.1% Triton X-100), mixed with zymography sample buffer (0.25M Tris-HCl, pH 6.8, 8% SDS, 40% glycerol, 0.01% bromophenol blue), at a 3:1 ratio, and used for further analysis.
(§2) Aliquots of sample were loaded onto polyacrylamide gels containing 0.1% of either of gelatin or casein. Electrophoresis was then carried out in a Biorad Mini-Protein II system,.at 20 mA constant current for 1.5-2 hours, until the bromophenol blue dye fronts of samples had reached the lower end of the gel. The gel was removed and incubated for one hour at 20-25° C. in a 2.5% aqueous solution of Triton X-100 on a rotary shaker. […]

[3] = Membrane overlay assay for proteolytic activity; type: biochemical; conditions: Ala-Pro-, Gly-Pro-, Lys-Pro-7-amino-4-trifluoromethyl coumarin
Experimental: Proteolytic activity for defined amino acid sequence motifs were tested, using a well known membrane overlay assay. See Smith et al, Histochem. J. 24(9): 637-647 (1992), incorporated by reference. Substrates were Ala-Pro-7-amino-4-trifluoromethyl coumarin, Gly-Pro-7-amino-4-trifluoromethyl coumarin, and Lys-Pro-7-amino-4-trifluromethyl coumarin.

gelatin = experiment: Gelatin zymography of 293-FAP cell extracts; type: biochemical; conditions: unboiled samples, approximately 170 kilodalton species
Experimental: as §1
as §2, with “gel.” for “gel. The gel was removed and incubated for one hour at 20-25° C. in a 2.5% aqueous solution of Triton X-100 on a rotary shaker.”
Gelatinase activity was evaluated in accordance with Kleiner et al., Anal. Biochem. 218: 325-329 (1994), incorporated by reference in its entirety. […]

Molecule: OCCS [2-mercaptoethanol]
effect on gelatin degrading enzymatic activity (170 kD FAPα dimer; 5% added to extracts prior to SDS-PAGE): None of these treatments abolished the enzymatic activity

Molecule: O=C(O)CN(CCN(CC(=O)O)CC(=O)O)CC(=O)O [ethylenediamine N,N,N′,N′-tetraacetic acid]
effect on gelatin degrading enzymatic activity (170 kD FAPα dimer; 10 mM added to incubation buffer for gelatin zymography): None of these treatments abolished the enzymatic activity

Molecule: NC(=O)CI [iodoacetamide]
effect on gelatin degrading enzymatic activity (170 kD FAPα dimer; 5 um added to extracts prior to SDS-PAGE): None of these treatments abolished the enzymatic activity

Cell surface antigen expression (% positive cells) [1]: > 95% | Cell surface antigen expression (% positive cells) [2]: 40%
Molecule: monoclonal antibody F19

B1: FAPα: recombinant fibroblast activation protein alpha from 293-FAP cells, approximately 170 kilodalton dimeric species by SDS-PAGE of unboiled samples (protein)
chain: T1 sequence (Q12884 1-760 A207P/T229K/T354R)
proteolytic activity with casein as substrate (casein): not observed | cleavage of dipeptide substrates [3]: able to cleave all of the Ala-Pro, Gly-Pro, and Lys-Pro dipeptides tested | gelatin degrading activity (gelatin): observed to have gelatin degrading activity
